As usually defined, the Kd is the concentration at which binding is half-saturated. A higher Kd goes with a looser complex. As a reminder, the IC50 is the concentration that gives 50% inhibition. Lower therefore signals inhibition by little substance.

Assay [1] has as its target MCL-1 (Homo sapiens), Q07820. Nature of the assay: ITC. Conditions: modification not given.
The target in assay [2] is MCL-1 (Homo sapiens), Q07820. The assay is described as follows: fluorescence anisotropy competition. To be noted: modification not given. On the technique in general: Polarisation of emitted light reports the rotation of a fluorescent probe.
Chain of MCL-1 (Homo sapiens), Q07820 (Q07820 whole entry): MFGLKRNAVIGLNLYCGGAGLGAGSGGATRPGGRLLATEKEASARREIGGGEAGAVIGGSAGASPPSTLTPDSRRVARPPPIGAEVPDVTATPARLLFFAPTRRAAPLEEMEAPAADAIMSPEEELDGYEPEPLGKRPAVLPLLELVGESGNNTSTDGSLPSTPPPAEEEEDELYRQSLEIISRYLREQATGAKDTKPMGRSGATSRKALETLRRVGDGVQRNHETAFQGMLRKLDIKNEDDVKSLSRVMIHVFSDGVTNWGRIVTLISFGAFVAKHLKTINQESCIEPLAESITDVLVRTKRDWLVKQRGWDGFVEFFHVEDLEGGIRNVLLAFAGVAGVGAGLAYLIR

B1: NOXA75–93 V85F 75-93, Q9JM54 (peptide)
chain: CAQLRRIGDKFNLRQKLLN
B1: in assay [1], the Kd worked out at 800 nM. Also, in assay [2], the 50% inhibitory concentration (IC50) is > 20000 nM.

B2: NOXA75–93 L78Y 75-93, Q9JM54 (peptide)
chain: CAQYRRIGDKVNLRQKLLN
For the molecule B2, the IC50 in assay [2] was > 100000 nM.

B3: NOXA75–93 L78F 75-93, Q9JM54 (peptide)
chain: CAQFRRIGDKVNLRQKLLN
In turn, B3 gave a Kd in assay [1] of 1700 nM. In addition, the half-maximal inhibitory concentration (IC50) in assay [2] was determined as 2700 nM.

B4: NOXA75–93 L78W 75-93, Q9JM54 (peptide)
chain: CAQWRRIGDKVNLRQKLLN
In assay [1], B4 registered a Kd of 2400 nM. The same molecule yielded a 50% inhibitory concentration (IC50) in assay [2] of 2200 nM.

Values taken from article PMC8495968, “Towards optimizing peptide-based inhibitors of protein–protein interactions: predictive saturation variation scanning (PreSaVS)” (RSC Chemical Biology, 2021).
